Assay results as given in publication PMC5382158 (Frontiers in Cellular and Infection Microbiology, 2017).

T1: Rv2617c-T25 (M. tuberculosis, UniProt I6XER9 1-146)
T1 sequence: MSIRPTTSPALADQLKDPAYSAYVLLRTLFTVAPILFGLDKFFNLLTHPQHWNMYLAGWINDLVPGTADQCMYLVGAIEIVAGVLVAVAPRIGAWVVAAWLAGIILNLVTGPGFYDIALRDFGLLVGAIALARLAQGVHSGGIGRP


Key:
[1] = target: NarI-T25 (M. tuberculosis); experiment: two-hybrid
Rv2617c-T25 = target: T1, Rv2617c-T25; experiment: two-hybrid; details: partners not purified

Row | Molecule | β-galactosidase activity [1] [Miller units] | β-galactosidase activity (Rv2617c-T25) [Miller units]
1 | KdpF-T18 (peptide) | 1200 | –
2 | MTTVDNIVGLVIAVALMAFLFAALLFPEKF [KdpF-T18] | – | 2030
